Reference: the supplement of paper PMC9170038

Key:
MS2 coat protein [1] = experiment: apparent KD of MS2 coat protein, switch OFF state (with FMN for OFF switches, without FMN for ON switches); designed switch direction (-1 OFF switch, 1 ON switch): -1; higher = weaker reporter binding; details: FMN input: 0 or 200 uM; Eterna round: R93 (includes R88 designs)
Procedure, shortened: (§1)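 Normalised binding curves from single clusters were fitted, and the median fit for each design is given as apparent KD. The clusters held designed RNA switches transcribed on-chip from Illumina sequencing clusters. These were titrated with SNAP-549-labelled MS2 coat protein (twofold steps from 0.7 or 1.5 nM to 3 µM, 0.8–1.5 h to 10–20 min per step) in 100 mM Tris-HCl pH 7.5, 80 mM KCl, 4 mM MgCl2, without or with constant ligand.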

MS2 coat protein [2] = experiment: apparent KD of MS2 coat protein, switch ON state; designed switch direction (-1 OFF switch, 1 ON switch): -1; higher = weaker reporter binding; details: FMN input: 0 or 200 uM; Eterna round: R93 (includes R88 designs)
Procedure, shortened: as §1

| Sequence | apparent KD of MS2 coat protein (MS2 coat protein [1]) | apparent KD of MS2 coat protein (MS2 coat protein [2]) |
| --- | --- | --- |
| CUCAAGUUAGGAUAUGUAAGAAAAGAAGAGAAAGAAAAGAAACAGAAGGAACAUGAGGAUCACCCAUGUAAGAA [EteRNA is fun!] | 24.1 nM | 22.1 nM |
| CUCAUGUGAGGAUAUGUACGAAAAAAUAAAAAAAUAAAAGUACAGAAGGCACAUGAGGAUCACCCAUGUGAAAA [EX4 398: Minimal 11] | 24.3 nM | 42.5 nM |
| AAAAAACAUGAGGAUCACCCAUGUGAGGAUAUUGGUAUUCAAGAAACCCUCUUAAUAGCGAGAAGGCGCAAAAA [Brourd 613 Mod 18 - Jieux - Exclusion 1] | 19.8 nM | 22.2 nM |
| AAAAAGUAAGGAUAUAGCAAAGGUCACGAAAGUGACAAAGGCUAGAAGGUACAUGAGGAUCACCCAUGUCCAAA [Fiskers Exclusion 4 D2 63% 3] | 17.7 nM | 19.9 nM |
| AAAAAGAGAGGAUAUACAUGAGGAUCACCCAUGUGACAUUAAAUAAAUAAAAUAAAGUGUAGAAGGCUCAAAAA [65%, Moding Exclusion3-cac2, 23] | 136 nM | 38.1 nM |
| AGCUAGCGAGGAUAUGCGAACAUGUCAAAAGACGUGAAGGGACAUGAGGAUCACCCAUGUAGAAGGCGCUAGCA [JL 74% mod 4] | 29.6 nM | 24.7 nM |
| AACAGGACAGGAUAUACAUGAGGAUCACCCAUGUGAGAAUUUAGCAGCGUACCACACAGUAGAAGGGUCAUGGA [Ruby 23] | 48.6 nM | 40.8 nM |
| CAGUACUGAGGAUAUACAUGAGGAUCACCCAUGUGUAAAAGCUAGGAAACUAGCACAUGUAGAAGGCAGUACUG [Ex3: 815] | 230 nM | 48.3 nM |
| AACAGUACAGGAUAUACAUGAGGAUCACCCAUGUGAAGAUUAAGUGGUGUACCACAAAGUAGAAGGGUACUGGA [Ruby 90] | 77.9 nM | 54.9 nM |
| GAAAAUUGAGGAUAUACGAACAUGUCAAAAGACGUGAAGGGACAUGAGGAUCACCCAUGUAGAAGGCGAAAAAG [Mat - Exclusion 2 - JL mod - D93] | 12.3 nM | 32 nM |
| CCUAUGUCAGGAUAUCAGUAGUAAAAAAAAAAAAUUACUACUGAGAAGGGACAUGAGGAUCACCCAUGUACCUU [EX4 310: Super Stable 10] | 17.8 nM | 25.5 nM |
| AAAACGGUAGGAUAUACAAUUGAGAACUAGAUCGAAAAAAAACAUGAGGAUCACCCAUGUAGAAGGGCCAAAAA [Ex2 Malc#10] | 23.6 nM | 38.2 nM |
| AAAUAGCAAGGAUAUACAUGAGGAUCACCCAUGUGAACCAGGUAUGGAAUAGAAUAGAGUAGAAGGUGCAAAUA [Mod 3 of Ex 3 Tesla 8 - Jieux - Exclusion 3] | 37.8 nM | 30.2 nM |
| AAGAAGACAGGAUAUACAUGAGGAUCACCCAUGUAAAAGAAAGAGGGAAAAGAGAAAAGUAGAAGGGUCAAGAA [Ptolemy III Euergetes I] | 20.5 nM | 16.8 nM |
| AAAGUACAUGAGGAUCACCCAUGUCAGGAUAUCGUGGCGGGAAAAACCGGGAAACGCACGAGAAGGGACAAAAA [EX1 Malc#18 Mod 13 - Jieux - Exclusion 1] | 42 nM | 36.2 nM |
| AAAAAACAUGAGGAUCACCCAUGUGAGGAUAUCCAAAAGUUAAAGAAAAAGACGAAAAGGAGAAGGCGCAAAAA [Fiskers Exclusion D3] | 40.7 nM | 68.7 nM |
| AGUCUGAGAGGAUAUACAUAGGAAAAAAAAGUAAGAUCCCUACAUGAGGAUCACCCAUGUAGAAGGCUCUGACA [Ex2 Design 142: Sub-opt 6] | 67.7 nM | 46.9 nM |
| AACUGACAUGAGGAUCACCCAUGUCAGGAUAUGACUUCGAAAAAUAAAAUAAACGAUGUCAGAAGGGACAUGGA [Design 67: Sub-opt NB] | 41.1 nM | 21.5 nM |
| GAAACACAUGAGGAUCACCCAUGUCAGGAUAUGUAGAUAAAAAGAAAAUAAAAUAAAAGCAGAAGGGACAAAAG [Mat - Same state - Mayanna Mod - D104] | 29.4 nM | 30.2 nM |
| ACGAACCUAGGAUAUACAUGAGGAUCACCCAUGUACAACUAUCCAUGAAUGACACUCGGUAGAAGGAGGAUCAA [Rileenen] | 22.9 nM | 15 nM |
| GGUUGAUGAGGAUAUACAUGAGGAUCACCCAUGUGAGAGAAAAAAGUGAGAAAGAAAAGUAGAAGGCAUUGACG [salish99-ex3-60] | 69.4 nM | 37.7 nM |
| AACAGACAUGAGGAUCACCCAUGUAAGGAUAUCCAAAACGAUAAAACAAGAAUGACAGGGAGAAGGUACAGCAA [JR_Exc001_Sub007] | 49 nM | 53.6 nM |
